In publication PMC3010111:

What was measured:
Test in all cases: purified protein
purified protein [1] = substrate: N[C@@H](CCO)C(=O)O; details: 25°C, 37 nM ThrB
purified protein [2] = substrate: N[C@H](C(=O)O)[C@H](O)CO
purified protein [3] = substrate: O=C(O)[C@H](O)[C@H](O)COP(=O)(O)O; details: 2 mM NAD+, 100 mM Tris–HCl pH 7.5, 25°C, 2 μM PdxA
purified protein [4] = substrate: C[C@@H](O)[C@H](N)C(=O)O; details: 0.1 M Tris–HCl pH 8.0, 25°C, 1.25 μM LtaE
purified protein [5] = substrate: C[C@H](O)[C@H](N)C(=O)O; details: 0.1 M Tris–HCl pH 8.0, 25°C, 62.5 nM LtaE
purified protein [6] = substrate: O=C(O)C(=O)COP(=O)(O)O; details: 50 mM Tris–HCl pH 7.4, 37°C, MalE–YeaB 5.7 μM
[7] = 0.1 M Tris–HCl pH 8.0, 25°C, 1 μM LtaE

B1: ThrB (homoserine kinase) (Escherichia coli K-12) (protein)
chain: MVKVYAPASSANMSVGFDVLGAAVTPVDGALLGDVVTVEAAETFSLNNLGRFADKLPSEPRENIVYQCWERFCQELGKQIPVAMTLEKNMPIGSGLGSSACSVVAALMAMNEHCGKPLNDTRLLALMGELEGRISGSIHYDNVAPCFLGGMQLMIEENDIISQQVPGFDEWLWVLAYPGIKVSTAEARAILPAQYRRQDCIAHGRHLAGFIHACYSRQPELAAKLMKDVIAEPYRERLLPGFRQARQAVAEIGAVASGISGSGPTLFALCDKPETAQRVADWLGKNYLQNQEGFVHICRLDTAGARVLEN
For B1, the Km (purified protein [1]) was 120 ± 20 µM, the kcat (purified protein [1]) was 46 ± 4 s⁻¹ and the kcat/Km (purified protein [1]) was 380000 ± 70000 M⁻¹ s⁻¹. The Km (purified protein [2]; 25°C, 0.18 μM ThrB) was 2000 ± 100 µM, the kcat (purified protein [2]; 25°C, 0.18 μM ThrB) was 9.7 ± 0.8 s⁻¹ and the kcat/Km (purified protein [2]; 25°C, 0.18 μM ThrB) was 4800 ± 600 M⁻¹ s⁻¹.

B2: PdxA (4-hydroxy-L-threonine dehydrogenase) (Escherichia coli K-12) (protein)
chain: MVKTQRVVITPGEPAGIGPDLVVQLAQREWPVELVVCADATLLTNRAAMLGLPLTLRPYSPNSPAQPQTAGTLTLLPVALRAPVTAGQLAVENGHYVVETLARACDGCLNGEFAALITGPVHKGVINDAGIPFTGHTEFFEERSQAKKVVMMLATEELRVALATTHLPLRDIADAITPALLHEVIAILHHDLRTKFGIAEPRILVCGLNPHAGEGGHMGTEEIDTIIPVLNELRAQGMKLNGPLPADTLFQPKYLDNADAVLAMYHDQGLPVLKYQGFGRGVNITLGLPFIRTSVDHGTALELAGRGKADVGSFITALNLAIKMIVNTQ
In the case of B2, the Km (purified protein [3]) is reported as 150 ± 13 µM and the kcat (purified protein [3]) is reported as 0.020 ± 0.002 s⁻¹.

B3: LtaE (low-specificity threonine aldolase) (Escherichia coli K-12) (protein)
chain: MIDLRSDTVTRPSRAMLEAMMAAPVGDDVYGDDPTVNALQDYAAELSGKEAAIFLPTGTQANLVALLSHCERGEEYIVGQAAHNYLFEAGGAAVLGSIQPQPIDAAADGTLPLDKVAMKIKPDDIHFARTKLLSLENTHNGKVLPREYLKEAWEFTRERNLALHVDGARIFNAVVAYGCELKEITQYCDSFTICLSKGLGTPVGSLLVGNRDYIKRAIRWRKMTGGGMRQSGILAAAGIYALKNNVARLQEDHDNAAWMAEQLREAGADVMRQDTNMLFVRVGEENAAALGEYMKARNVLINASPIVRLVTHLDVSREQLAEVAAHWRAFLAR
With B3 the Km (purified protein [4]) was 4000 ± 200 µM, the kcat (purified protein [4]) was 1.1 ± 0.1 s⁻¹ and the kcat/Km (purified protein [4]) was 280 ± 20 M⁻¹ s⁻¹. For the same protein, the Km (purified protein [5]) was 52 ± 4 µM, the kcat (purified protein [5]) was 3.2 ± 0.2 s⁻¹ and the kcat/Km (purified protein [5]) was 62000 ± 5000 M⁻¹ s⁻¹. It also gave a Km (purified protein [2]; [7]) of 27 ± 2 µM, a kcat (purified protein [2]; [7]) of 1.44 ± 0.03 s⁻¹ and a kcat/Km (purified protein [2]; [7]) of 53000 ± 4000 M⁻¹ s⁻¹.

B4: MalE–YeaB (YeaB, also known as NudL) (Escherichia coli K-12) (protein)
chain: MEYRSLTLDDFLSRFQLLRPQINRETLNHRQAAVLIPIVRRPQPGLLLTQRSIHLRKHAGQVAFPGGAVDDTDASAIAAALREAEEEVAIPPSAVEVIGVLPPVDSVTGYQVTPVVGIIPPDLPYRASEDEVSAVFEMPLAQALHLGRYHPLDIYRRGDSHRVWLSWYEQYFVWGMTAGIIRELALQIGVKP
B4 gave a kcat (purified protein [6]) of 5.7e-05 ± 7e-06 s⁻¹ and a kcat/Km (purified protein [6]) of over 0.028 M⁻¹ s⁻¹.
